As usually defined, the Kd is a measure of binding affinity in units of concentration.

Numbering of substitutions follows the chain as printed.

T1: extracellular domain of CD99 (UniProt P14209 23-122, limits assumed)
T1 construct: extracellular domain; also called antigen CD99; purified recombinant extracellular domain of CD99
T1 sequence (looked up): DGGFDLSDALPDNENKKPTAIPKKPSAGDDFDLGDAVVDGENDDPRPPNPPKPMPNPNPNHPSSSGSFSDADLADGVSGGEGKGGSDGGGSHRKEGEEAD

B1: C6 anti-CD99 scFv (soluble) (scFv)
scFv: EVQLQQSGAELVKPGASVKLSCTASGFNIKDTYIHWVKRRPEQGLEWIGRIDPANGNTKYDPKFQGKATITADTSSNTAYLQLSSLTSEDTAVYYCARRGLDYWGQGTLVTVSAGGGGSGGGGSGGGGSDVVMTQTPLTLSVTIGQPASISCKSSQSLLDGDGKTYLNWLLQRPGQSPKRLIYLVSKLDSGVPDRFTGSGSGTDFTLKISRVEAEDLGVYYCWQGTHFPRTFGGGTKLEIK
notes: Selected from a CD99 phage antibody library; Expressed as soluble scFv in E. coli BL21 (DE3) from PET-28b (Nde I / Xho I) and purified
B2: C2 anti-CD99 scFv (soluble) (scFv)
scFv: B1 scFv with L101G, D102V, Y103D
notes: Prior-art scFv; Expressed as soluble scFv in E. coli BL21 (DE3) from PET-28b; also called C2 in CN 110590960 A
B3: C3 anti-CD99 scFv (soluble) (scFv)
scFv: QVQLVQSGAEVKKPGASVKVSCKASGFNIKDTYIHWVRQAPGQGLEWMGRIDPANGNTKYDPKFQGRVTMTRDTSISTAYMELSRLRSDDTAVYYCARRGGVDWGQGTLVTVSSGGGGSGGGGSGGGGSDIVMTQTPLSLSVTPGQPASISCKSSQSLLDGDGKTYLNWLLQKPGQSPQRLIYLVSKLDSGVPDRFSGSGSGTDFTLKISRVEAEDVGVYYCWQGTHFPRTFGQGTKLEIK
notes: Prior-art scFv; Expressed as soluble scFv in E. coli BL21 (DE3) from PET-28b; also called C3 in CN 110590960 A
B4: C4 anti-CD99 scFv (soluble) (scFv)
scFv: EVQLQQSGAELVKPGASVKLSCTASGFDIKDTYIHWVKQRPEQGLEWIGRIDPANGDTRYDPEFQGKASLTADTSSNTAYLQFSNLTSEDTAVYYCARRGGLSWGQGTTLTVSSGGGGSGGGGSGGGGSDIQMTQSPASLSASVGETVTITCRASGNIHNYLAWYQQKQGKSPQLLVYNAKTLADGVPSRFSGSGSGTQYSLKINSLQPEDFGSYYCQHFWSTPWTFGGGTKLEIK
notes: Prior-art scFv; Expressed as soluble scFv in E. coli BL21 (DE3) from PET-28b

This test addresses T1, extracellular domain of CD99. Kind of test: surface plasmon resonance (BiacoreX), soluble scFv against extracellular domain of CD99. The source says: The nucleotide sequences shown in SEQ ID NO: 2, SEQ ID NO: 4, SEQ ID NO: 6, SEQ ID NO: 8 and SEQ ID NO: 10 were artificially synthesized with the cleavage site Nde I and Xho I each added to either terminal. The synthetic nucleotide sequences were subjected to dual-enzyme digestion, and then ligated to a cloning vector PMD-19T subjected to the same digestion process as above. The ligated product was transformed into the competent cells, and then the positive clones were screened and sequenced. The plasmid was extracted from the positive clone with a correct sequence, and then subjected to dual-enzyme digestion by using Nde I and Xho I. Meanwhile, an expression vector PET-28b was also subjected to the same dual-enzyme digestion as above. The nucleotide fragment was ligated with the vector fragment, with which E. coli was transformed. The positive clones were screened and sequenced. The positive clone with correct sequence was selected for extracting the plasmid.
For orientation: In SPR one partner is held on a chip, and binding of the other changes the refractive index at the surface.
In turn, B1 came in with a Kd of 450 nM. Under B2 stands 480 nM; under B3, 510 nM. With B4, the affinity, expressed as Kd, was 600 nM. This Kd and that of the molecule before are within 1.5-fold of each other.

The values are drawn from patent publication US20240317882A1 (WUHAN BIO RAID BIOTECH, published 2024).
